The results in this text go back to the RNAGym collection of RNA variant scans (doi:10.1093/nar/gkz1192).

First the molecules themselves.
B1: CPEB3 Ribozyme (parent)
chain: UAACAGGGGGCCACAGCAGAAGCGUUCACGUCGCAGCCCCUGUCAGAUUCUGGUGAAUCUGCGAAUUCUGCUGUAUAUCUC

In the data set the parent is B1. The data set is described as follows: self-cleavage, relative activity (ratio to wild type); higher = more cleavage; in vitro, sequencing. A digest of the protocol: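 Relative activity was defined as the cleaved/total read fraction for a variant divided by the same fraction for the unmutated ribozyme. CPEB3 self-cleaving ribozyme libraries were made by rounds of error-prone PCR, barcoded, and transcribed in vitro with T7 RNA polymerase for 5 hours at 37°C, and cleavage ran through transcription plus a 15 min DNase I step before EDTA. Illumina sequencing of template-switched reverse transcripts gave the reads, and DNA sequencing mapped the barcodes. Averages come from three batches, using variants with at least 5 reads.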
In the case of A28G A56U, the self-cleavage is 0.34.

In the case of A28G A56C, the self-cleavage came out at 0.31.

A28G A56G: the self-cleavage worked out at 0.43.

As for U26G, the self-cleavage came to 0.31.

In the case of C27G A47U, the self-cleavage was 0.05.

Regarding C27U A28G, the self-cleavage came to 0.37.

Consider A28C G63U, for which the self-cleavage was determined as 0.41.

As for C27U G30A, the self-cleavage was found to be 0.26.

As to C27G U69C, the self-cleavage was 0.24.

C27G U69G: the self-cleavage was found to be 0.14.

On to U26G U66C, for which the self-cleavage was determined as 0.16.

Turning to U26G U66G, the self-cleavage is 0.2.

A28G G36U: the self-cleavage was 0.15.

On to A28G G36A, for which the self-cleavage was determined as 0.15.

For the variant C27A C32U, the self-cleavage was 0.3.

With A28G G70A, the self-cleavage turned out to be 0.23.

In the case of U26G A75G, the self-cleavage came to 0.16.

Consider C27A C39A, for which the self-cleavage was determined as 0.2.

On to U26G U54A, for which the self-cleavage was 0.19.

On to A28C U72A, for which the self-cleavage was determined as 0.38.

Regarding A28C U72G, the self-cleavage was 0.4.

Take A28C U72C: the self-cleavage was 0.61.

U26C U72A: the self-cleavage stood at 0.36.

As to U26C U72C, the self-cleavage was 0.65.

For U26C U72G, the self-cleavage was found to be 0.41.

With U26C U78C, the self-cleavage was 0.42.

Regarding U26C U78A, the self-cleavage worked out at 0.51.

Take U26G U74C: the self-cleavage amounted to 0.39.

U26G U74A: the self-cleavage was found to be 0.41.

Consider C27G C50U, for which the self-cleavage came out at 0.23.

For the variant A28C U76A, the self-cleavage stood at 0.61.

Consider A28C U76C, for which the self-cleavage came to 0.53.

With C27G A64G, the self-cleavage came out at 0.23.

Turning to C27U U48C, the self-cleavage came to 0.18.

Consider C27G U41C, for which the self-cleavage stood at 0.18.

A28C G52U: the self-cleavage was 0.64.

As to C27U U66C, the self-cleavage is 0.15.

As to C27U, the self-cleavage stood at 0.29.

As to C27G, the self-cleavage worked out at 0.28.

For C27A, the self-cleavage is 0.3.

As to A28G G73U, the self-cleavage turned out to be 1.26.

For A28G G73A, the self-cleavage stood at 1.16.

Regarding A28G G73C, the self-cleavage is 1.29.

As to C27U U67C, the self-cleavage is 0.16.

For the variant A28G A75G, the self-cleavage amounted to 0.53.

As to A28G A75U, the self-cleavage is 0.73.

On to U26G A57G, for which the self-cleavage came to 0.27.

On to A28C A77U, for which the self-cleavage came out at 0.22.

Turning to A28C A77G, the self-cleavage worked out at 0.51.

Consider C27A C37U, for which the self-cleavage worked out at 0.21.

U26G U76A: the self-cleavage was 0.32.

For the variant U26G U76C, the self-cleavage is 0.45.

On to A28C, for which the self-cleavage turned out to be 0.56.

As to A28G, the self-cleavage worked out at 0.67.

U26C U74A: the self-cleavage was 0.73.

Turning to U26C U74G, the self-cleavage is 0.78.

With U26C U74C, the self-cleavage came out at 0.79.

As for C27U U43A, the self-cleavage came to 0.29.

Consider C27U U43C, for which the self-cleavage came out at 0.21.

Take U26G A47G: the self-cleavage was 0.39.

In the case of A28G C81U, the self-cleavage stood at 0.75.

With A28G C81A, the self-cleavage came to 1.

Regarding A28G C81G, the self-cleavage was 0.42.

For the variant C27A C50U, the self-cleavage turned out to be 0.17.

With C27G U54C, the self-cleavage was 0.3.

Take A28C U66C: the self-cleavage came out at 0.28.

As for C27G U76C, the self-cleavage was 0.22.

For the variant U26G U49G, the self-cleavage turned out to be 0.05.

For the variant U26G U49A, the self-cleavage was determined as 0.28.

Take C27G A35U: the self-cleavage worked out at 0.16.

With C27A U48C, the self-cleavage is 0.11.

On to U26G C34G, for which the self-cleavage turned out to be 0.07.

As for C27U U74A, the self-cleavage amounted to 0.5.

As to C27U U74C, the self-cleavage was 0.36.

Consider C27A U80A, for which the self-cleavage was 0.17.

On to C27A U80C, for which the self-cleavage was 0.66.

Consider C27U U72C, for which the self-cleavage amounted to 0.24.

As to C27U U72A, the self-cleavage worked out at 0.18.

C27U U51A: the self-cleavage is 0.17.

With A28G A57C, the self-cleavage was found to be 0.16.

Take A28G A57U: the self-cleavage is 0.24.

Turning to A28G A57G, the self-cleavage came to 0.51.

For the variant C27A U41C, the self-cleavage is 0.24.

As to C27A U41A, the self-cleavage stood at 0.07.

With A28G A77U, the self-cleavage came out at 0.79.

Consider A28G A77C, for which the self-cleavage came out at 0.58.

A28G A77G: the self-cleavage was 0.72.

For A28G A64U, the self-cleavage amounted to 0.24.

On to A28G A64G, for which the self-cleavage was determined as 0.46.

For A28G G33U, the self-cleavage was determined as 0.16.

A28G G33A: the self-cleavage was determined as 0.22.

In the case of A28C C71U, the self-cleavage amounted to 0.41.

Regarding A28C C71G, the self-cleavage was determined as 0.08.

As to C27A U58G, the self-cleavage turned out to be 0.25.

As to A28C C38U, the self-cleavage worked out at 0.41.

Regarding A28C C38G, the self-cleavage stood at 0.19.

Take A28G A47C: the self-cleavage was found to be 0.23.

Regarding A28G A47G, the self-cleavage turned out to be 0.52.

Consider A28G A47U, for which the self-cleavage stood at 0.25.

Consider U26C U80C, for which the self-cleavage was determined as 0.56.

For the variant U26C U80G, the self-cleavage was 0.54.

On to U26C U80A, for which the self-cleavage was 0.51.

With C27U A45G, the self-cleavage amounted to 0.17.

Consider C27U A45C, for which the self-cleavage is 0.19.

As to U26G C44A, the self-cleavage amounted to 0.25.

On to C27A A45G, for which the self-cleavage came to 0.22.

For A28C U67C, the self-cleavage amounted to 0.22.

On to A28C U67A, for which the self-cleavage amounted to 0.49.

For A28G U31A, the self-cleavage came to 0.33.

Take A28G U31C: the self-cleavage stood at 0.48.

For the variant C27U C29A, the self-cleavage amounted to 0.15.

Take A28G C79U: the self-cleavage stood at 0.88.

A28C U69G: the self-cleavage was 0.2.

With A28C U69A, the self-cleavage was found to be 0.17.

Take A28C U69C: the self-cleavage came to 0.19.

With U26G G73A, the self-cleavage is 0.89.

Consider U26G C59A, for which the self-cleavage stood at 0.16.

Consider U26G A65U, for which the self-cleavage is 0.15.

For the variant U26G A65G, the self-cleavage stood at 0.35.

Turning to U26G U31C, the self-cleavage is 0.25.

Consider U26G U31A, for which the self-cleavage was determined as 0.3.

As for U26G U69C, the self-cleavage is 0.37.

Regarding U26G U69A, the self-cleavage was determined as 0.21.

As to C27G C32U, the self-cleavage was found to be 0.17.

Regarding C27U U58C, the self-cleavage is 0.15.

Regarding U26G U43A, the self-cleavage is 0.41.

Turning to U26G U43C, the self-cleavage was 1.02.

As to A28C U78C, the self-cleavage amounted to 0.46.

Regarding A28C U78A, the self-cleavage is 0.64.

Turning to C27A U74C, the self-cleavage turned out to be 0.19.

Take U26C U67G: the self-cleavage was determined as 0.21.

With A28C U49A, the self-cleavage is 0.26.

With A28C U49C, the self-cleavage worked out at 0.21.

On to A28C U74A, for which the self-cleavage came out at 0.9.

Turning to A28C U74C, the self-cleavage worked out at 0.7.

For the variant A28G C39U, the self-cleavage stood at 0.57.

A28G C39A: the self-cleavage was 0.06.

Turning to A28C C81U, the self-cleavage was determined as 0.67.

Regarding C27A U67A, the self-cleavage was 0.18.

On to C27A U67C, for which the self-cleavage was 0.14.

As for C27U U49C, the self-cleavage came out at 0.15.

Turning to U26C U69A, the self-cleavage is 0.26.

As to U26C U69C, the self-cleavage was found to be 0.27.

With U26C U69G, the self-cleavage turned out to be 0.17.

Turning to A28G A65C, the self-cleavage is 0.21.

With A28G A65G, the self-cleavage turned out to be 0.33.

On to A28G A65U, for which the self-cleavage was found to be 0.15.

Regarding A28G C38A, the self-cleavage was found to be 0.29.

As to A28G C38U, the self-cleavage came out at 0.54.

Consider A28G C38G, for which the self-cleavage is 0.25.

Turning to C27A A77U, the self-cleavage is 0.14.

Consider C27U C37U, for which the self-cleavage was found to be 0.2.

With A28C U80A, the self-cleavage was determined as 0.53.

In the case of A28C A64G, the self-cleavage stood at 0.52.

Turning to A28C A75G, the self-cleavage is 0.49.

As to C27U U78C, the self-cleavage came out at 0.44.

With C27U U78A, the self-cleavage turned out to be 0.16.

With C27U U78G, the self-cleavage amounted to 0.38.

C27U A64U: the self-cleavage was 0.26.

C27U A64G: the self-cleavage is 0.24.

In the case of U26G C79U, the self-cleavage was found to be 0.4.

Regarding U26G C79A, the self-cleavage was 0.19.

As for C27U U54C, the self-cleavage was determined as 0.35.

Turning to C27U U54A, the self-cleavage was 0.34.

For the variant U26G U80C, the self-cleavage came out at 0.51.

In the case of U26G U80A, the self-cleavage was 0.35.

With C27U A57G, the self-cleavage worked out at 0.17.
